# Measurements as given in the RNAGym collection of RNA variant scans (doi:10.7554/elife.80360).
# B1: HDV Ribozyme (parent)
# chain: GGCCGGCAUGGUCCCAGCCUCCUCGCUGGCGCCGGCUGGGCAACAUUCCGAGGGGACCGUCCCCUCGGUAAUGGCGAAUGGGACCCA
# Variants of: B1
# Test: self-cleavage, relative activity (ratio to wild type); higher = more cleavage; co-transcriptional
row,Variant,self-cleavage
1,U69C A78C,0.322
2,C3U G34U,0.141
3,G52C U60C,0.966
4,C21A C86A,0.0563
5,C33G A71G,0.178
6,G59C A87C,1.08
7,U20C G50C,0.312
8,G73C C84G,0.086
9,U12C C85A,0.185
10,G11C U46A,0.115
11,G17U C63G,0.509
12,G11A A51U,0.468
13,G82C C85G,0.119
14,C44G C66A,0.692
15,U27A A71C,1.03
16,G35U U47A,0.332
17,G50U U72C,0.487
18,G50A U69A,1.01
19,C7U C85G,0.985
20,C22A G82A,0.0767
21,C3U C14A,0.594
22,A16C U47G,0.185
23,C15G C48A,0.623
24,G10C A51G,0.72

row,Variant,self-cleavage
1,A43G U65C,0.522
2,C21G G25U,0
3,G31U C86G,0.451
4,G39A C86G,0.534
5,G1C U27A,0.185
6,A16C C19G,0.0594
7,A43G C62A,0.554
8,A8G A43C,0.145
9,G54U G81U,0.349
10,U46C U72G,0.475
11,G17U C36G,0
12,C48U C85G,0.941
13,C57A C86U,1.06
14,G28A G73C,0.0256
15,C26G C84G,0.615
16,A16C G39U,0.244
17,C58G C63G,0.91
18,A8G A70G,1.09
19,C41G C75U,0.095
20,G25A U27G,0.133
21,G80C,0.187
22,C19A C26G,0.312
23,G34A G52U,0.143
24,U37A A77C,0.0426

row,Variant,self-cleavage
1,C22U A70G,0.577
2,U46A G59C,0.57
3,G10A G31U,0.226
4,G11A C85A,0.735
5,C24U A45C,0.26
6,G5C C22G,0
7,C44U C49G,0.935
8,C41A U72G,0.712
9,C26U C32U,0.799
10,C44G U47G,0.475
11,G1A A56U,0.217
12,G1A C14U,0.415
13,C15U G25U,0.0875
14,U12A A78G,0.237
15,C30A A56G,0.529
16,G39C U65A,0.0462
17,U46G G50A,0.525
18,C26G A43U,0.584
19,A87U,1.03
20,U23A C44G,0.594
21,U12G G29C,0.175
22,U79C G81C,0.189
23,A43U U72G,0.256
24,C33G G39U,0.0692

row,Variant,self-cleavage
1,U79C C84U,0.332
2,G10A U79C,0.0882
3,C3A C49A,0.554
4,G53U G81U,0.28
5,C19G G81C,0.0462
6,G5A C19A,0.0723
7,U12A A43C,0.161
8,C33U A42G,0.427
9,A16G G25C,0.166
10,C26A C85A,0.997
11,U46G C61U,0.332
12,C41G U60C,0.997
13,U46A G67C,0.76
14,C33U A70C,0.931
15,C58A C84G,0.764
16,A56G C75A,0
17,C57U U69G,1.27
18,G40U G67C,0.639
19,C21A G82U,0.0297
20,G6U G80A,0.104
21,C14U G59U,0.997
22,C33U,0.847
23,C18G G34U,0
24,C26G U72C,0.862

row,Variant,self-cleavage
1,G28U G54C,0.234
2,G50C G53C,0.18
3,G29A G54A,0.0989
4,C44G A78C,0.193
5,C14A C44U,0.166
6,C14A C75A,0.208
7,G17A G31U,0.102
8,C44U C49A,0.892
9,C58G A83G,0.633
10,C7A G74C,0.131
11,G40U G59A,0.812
12,C58A C62U,1.08
13,C7G U47G,0
14,U27A C66G,0.755
15,G67A C85U,1.03
16,G38A U69G,0.166
17,C18A C64U,0.256
18,C19A G81C,0.0272
19,U12G G59A,0.929
20,U27G C66U,1.02
21,C44A A51C,0.779
22,G5C A78C,0.0615
23,G25C G40A,0.0386
24,G11U G40A,0.387

row,Variant,self-cleavage
1,A8U A56G,0.957
2,G6C A78C,0.0831
3,C13A U37A,0
4,C58G U65G,1.16
5,A70C G74A,0.308
6,G6C C26G,0.378
7,G5C A51C,0.293
8,A16U C32G,0.156
9,G6A G34C,0.104
10,U20A A77G,0.0723
11,G6U C24A,0.0378
12,U46C G59U,0.962
13,C61U U72A,0.703
14,U20G C41G,0.166
15,C14A C84G,0.623
16,C21A C24G,0
17,G40A G73A,0.669
18,U69A A87C,1.01
19,G68A G80U,0.251
20,C41G G76A,0.991
21,C49G U69A,0.798
22,G6U U69A,0.415
23,C15G G81A,0.297
24,G38A C75U,0.0443

row,Variant,self-cleavage
1,C66A A70C,0.831
2,U12A C84G,0.554
3,C26G C48U,0.877
4,G10C C41U,0.692
5,U47A A78C,0.147
6,C21G G53U,0.0248
7,U9A C62A,1.03
8,G2U U69C,0
9,A42C G54C,0.269
10,A16U C58U,0.962
11,C41G U47G,0.598
12,G28A U37C,0.151
13,C18U A83U,0.243
14,G52U G68C,0.185
15,U60C G80A,0.386
16,G1A A45C,0.268
17,G39A U69A,0.443
18,C41A U65C,1.14
19,C57G G59C,0.969
20,A16C A56U,0.997
21,C14U C36A,0.128
22,C19U G76U,0.288
23,G28C A78C,0.0852
